The record followed here is article PMC6513753 (Nature chemical biology, 2018).

The series deals with the molecule itself. Nature of the series: crystal structure.

B1: nepetalactol-related short-chain dehydrogenase/reductase 3 (NEPS3) from Nepeta mussinii (enzyme)
chain: MANNSVMMKKKLEGKVAIVTGGASGIGEATARLFVKYGARAVVIADIQSELGRSVAESIGKERCSFVQCDVADEEQVKSMIEWTATTYGGLDVMFSNAGVLNSAAQTVKDLDLPLFDKVMRVNTRGAAVCVKQAARKMVELGRGGSIICNAGSSAVRGAHGVTDYVMSKHAVIGLVRSASMQLGAHSIRVNSVSPMAVATPLTRNQGISTPDDVQKFLMPFISLKGVPPTAEQVAEAAAFLGSDEAAFVTGHDLPVDGGVLCMPFLLGSA
B1: the “stoichiometry N” value was determined as 4.
